Experimental data taken from patent US8598320B2, “Anti-PCSK9 and methods for treating lipid and cholesterol disorders” (Merck Sharp & Dohme Corp., priority 2007, dated 2013).
Positions count from the first letter of the chain named. Several values for one entry are separate records, joined by “and”; a condition that tells them apart may be missing. Equal values may be shown once. Marks after values point to notes of the source that are not given here.

B1: 29C10: mouse anti-human PCSK9 antibody (IgG2a); heavy chain SEQ ID NO: 34, light chain SEQ ID NO: 38 (antibody, listed as Mus musculus, V domains shown)
VH: EVLLQQSVAELVRPGASVRLSCTASGFNIKDTYIHWVRQRPEQGLEWFGWIDPANGYTKYAPNFQGKATLTTDTSSNTAYLHLSSLTSEDSAIYYCARGYYRYYSLDYWGQGTSVTVSS
VL: DIQMTQTTSSLSASLGDRVTISCRASQDISNYLNWYQQKPDGTVKLLIYYSSRLHSGVPSRFSGRGSGTDYSLTISTLEQEDIATYFCQQGKTLPLTFGAGTKLELKRA
B2: 1F11/1G11: mouse anti-human PCSK9 antibody (IgG2a); heavy chain SEQ ID NO: 50, light chain SEQ ID NO: 54 (antibody, listed as Mus musculus, V domains shown)
VH: EVQLQQSGPELVKPGASVKISCKVSGYTFTDYYMNWVKQSHGKSLEWIGDINPNNGGAIYNQKFKGKATLTVDKSSSIAYMELRSLTSEDSAVYYCTSGIITEIAEDFWGQGTTLTVSS
VL: DIVMTQSQKFMSTSVGDRVSVTCKASQNVGTNVVWYQQKPGQSPKALIHSASYRYSGVPDRFKGSGSGTDFTLTITNVQSEDLAGFFCQQYKTYPYTFGGGTQLEIKRA
B3: 75B9: mouse anti-human PCSK9 antibody (IgG2a); heavy chain SEQ ID NO: 18, light chain SEQ ID NO: 22 (antibody, listed as Mus musculus, V domains shown)
VH: EVQLQQSGADLVKPGASVKLSCTASGFNIKDTYIHWVKQRPEQGLEWIGRIDPANGHTEYDPKFQGRATLTTDTSSNTAYLQLFSLTSEDSAVYFCARSYYGSIFAYWGQGTLVTVSA
VL: QIVLTQSPAIMSASPGEKVTISCSASSSVSYLFWYQQKPGSSPKPWIFRTSYLASGVPARFSGSGSGTSFSLTISSMEAEDAATYYCHQYHTYPPTFGGGTKLEIKRA
B4: 11B5: mouse anti-human PCSK9 antibody (IgG2a); heavy chain SEQ ID NO: 10, light chain SEQ ID NO: 14 (antibody, listed as Mus musculus, V domains shown)
VH: EVQLQQSGAELVKPGASVTLSCTASGFNIKDTYMHWVNQRPEQGLVWIGRIDPANGHTEYDPKFQDKATITTDTSSNTAYLHLSSLTSGDTAVYYCARSYFGSIFAYWGQGTLVTVSA
VL: B3 VL with F33Y, T50S, Y52H, L53R, F70Y, H91Q, T92S
B5: 22D11: anti-human PCSK9 antibody (IgG1); heavy chain SEQ ID NO: 42, light chain SEQ ID NO: 46 (antibody, listed as Mus musculus, V domains shown)
VH: EVQLVDSGGGLVQPGRSLKLSCAASGFTFSNHDMAWVRQAPTKGLEWVASITPSGGTTYYRDSVEGRFTVSRDNVKSSLHLQMDSLTSEDTATYYCARQNYYDGSYYYGLYYFDYWGQGVMVTVSS
VL: DVLMTQTPVSLPVSLGGQVSISCRSSQSLVYSDGNTYLHWYLQKPGQSPQLLIYRVSNRFSGVPDRFSGSGSGTDFTLKISRVEPEDLGLYYCLQSTHFPPTFGSGTKLEIKRA
B6: 77D10: mouse anti-human PCSK9 antibody (IgG2b); heavy chain SEQ ID NO: 26, light chain SEQ ID NO: 30 (antibody, listed as Mus musculus, V domains shown)
VH: EVQLQQSGAELVRSGASVKLSCTTSGFNIKDYYIHWVKQRPEQGLEWIGWIDPENGDTEYAPKFQGKATMTADTSSNTAYLQLSSLTSADTAVYYCNAYYRYDDGTWFPYWGQGTLVTVSA
VL: DIQLTQSPASLSASVGETVTITCRASGNIHSYLAWYQQKQGKSPQFLVDNAKTLPDGVPSRFSVSGSGTQYSLKINSLQPEDFGTYYCQHFWNTPWTFGGGTKLEIKRA

What was measured:
PCSK9/LDLR interaction = PCSK9/LDLR interaction (Homo sapiens, UniProt Q8NBP7); test: Alphascreen binding assay: inhibition of PCSK9/LDLR interaction (Example 3)
Text: An Amplified Luminescent Proximity Homogeneous Assay (ALPHA, Perkin-Elmer; Waltham, Mass.) capable of directly determining the interaction between PCSK9-FLAG and a putative binding partner was used to determine the effect of anti-PCSK9 antibodies on this interaction. This technique required that “donor” and “acceptor” beads be brought into proximity via protein-protein interaction, resulting in increased luminescence (Ullman et al., Proc. Nat. Acad. Sci. (1994) 91:5426-5430). In the basic assay, LDL receptor binding to PCSK9 was determined as follows: 5 μl of recombinant receptor at the appropriate concentrations was incubated with 2.5 μl PCSK9-FLAG (1.4 μg/ml, 30 min). About 2.5 μl of biotinylated anti-Flag-M2 antibody (1.8 μg/ml) was added and the mixture incubated for 1 hour. Afterward 5 μl of streptavidin donor bead and nickel chelate acceptor bead (1:1 mixture) was added and the assay incubated overnight. AlphaScreen signal (counts per second) was analyzed using an EnVision microplate reader (Perkin-Elmer). All data points were determined in triplicate. Assays were carried out at 23° C. in buffer containing 25 mM HEPES, 0.1 M NaCl, pH 7.4, 0.1% BSA. The inhibition assays were determined similarly with slight adjustments to assay volumes and protein concentrations. Briefly, 5 μl of 1.25 μg/ml of PCSK9-Flag and 1.25 μg/ml of His-tagged LDL receptor was incubated with 2.5 μl of antibody at the appropriate concentrations for 30 minutes followed by the addition of 2.5 μl of anti-Flag-BioM2 (1.8 μg/ml) and a 1 hour incubation.

PCSK9 [1] = biological target: T1, PCSK9 (Homo sapiens, UniProt Q8NBP7); test: In-cell western: inhibition of PCSK9-mediated LDLR degradation in HepG2 cells; type: cell-based; parameters: The protein was added exogenously to HepG2 cells; key to Relative level of inhibition of LDLR degradation observed: Greater number of + symbols indicates a greater level of inhibition relative to other treatments.; ++: Greater number of + symbols indicates a greater level of inhibition relative to other treatments.; +++: Greater number of + symbols indicates a greater level of inhibition relative to other treatments; settings: for Relative level of inhibition of LDLR degradation observed: PCSK9 100 nM, 18 hours, LDLR normalized to β-actin
Method: The 75B9, 77D10, 11B5, 22D11, 1F11/1G11 and 29C10 antibodies were evaluated in an in-cell western assay for their ability to inhibit the degradation of the LDL receptor by PCSK9 in HepG2 cells.
In-cell western was performed to quantitate anti-PCSK9 antibody inhibition of PCSK9-mediated LDLR degradation. HepG2 cells were seeded in 384-well collagen I coated plates and treated with anti-PCSK9 antibody and/or PCSK9 (100 nM) for 18 hours. Detection of LDLR and β-actin was performed according to the manufacturer's protocol (Li-Cor Biosciences; Lincoln, Nebr.) using the antibodies described above in conjunction with IRDye 800CW goat anti-rabbit (Li-Cor) and IRDye 680 goat anti-mouse (Li-Cor). The assay was read on an Odyssey infrared imaging system (Li-Cor) and the signal for LDLR protein in each well normalized to β-actin content.

PCSK9 [2] = biological target: T1, PCSK9; test: Plasma cholesterol in mice injected with human PCSK9; type: in vivo; parameters: host or cells: Exogenous protein injected into male C57BL/6J mice; settings: Male C57BL16j mice; 400 μg antibody i.p., 10 μg human PCSK9 i.v. at 2 hours; plasma at 4 hours
Method: (§1) The ability of an anti-PCSK9 antibody (1F11/1G11) to inhibit LDL receptor degration in mice was evaluated in these assays along with the ability of the antibodies to modulate cholesterol levels.
(§2) Time-0: Male C57BL16j mice were injected, intraperitoneal, with 400 μg of anti-human PCSK9 Antibody, 1F11/1G11. • Time-2 hours: Mice were then injected, intravenously, with 10 μg of human PCSK9 Protein. • Time-4 hours: Mice were terminated and plasma and liver samples were collected. Analysis:
Plasma lipoprotein profiles of individual mice (0.1 mL plasma) were determined by fast protein liquid chromatography (FPLC) with a Pharmacia Superose 6 column. FPLC fraction cholesterol levels were determined using Wako Cholesterol Enzymatic colorimetric method.

PCSK9 [3] = biological target: T1, PCSK9; test: In vivo inhibition of liver LDLR degradation in mice (Western blot); parameters: host or cells: Exogenous protein injected into male C57BL/6J mice; settings: for LDLR/GAPDH / LDLR (band intensity): liver, individual mice 107-110; for LDLR (band intensity): 400 μg antibody i.p., 10 μg human PCSK9 i.v.; for Mean LDLR/GAPDH: Antibody and PCSK9 group; for % Change: mean LDLR/GAPDH vs. Saline only control
Method: as §1, §2
Protein levels of Liver LDL Receptor were determined by Western Blot. 40 μg of each liver homogenate was separated on an Invitrogen 4-12% NuPAGE gel, transferred to PVDF membrane and incubated with goat anti-mouse LDL receptor antibody (rabbit anti-GAPDH antibody was used as a control for equal loading). Membranes were then incubated with corresponding HRP-linked antibodies and visualization was accomplished with high performance chemiluminescence film. Band intensities were quantified using ImageQuant 5.2 software.
LDL receptor levels were expressed in Arbitrary Units (AU) as a ratio of LDL receptor band intensity to GAPDH band intensity. Two separate analyses of the data are presented, […]

T1 sequence (Q8NBP7 153-692): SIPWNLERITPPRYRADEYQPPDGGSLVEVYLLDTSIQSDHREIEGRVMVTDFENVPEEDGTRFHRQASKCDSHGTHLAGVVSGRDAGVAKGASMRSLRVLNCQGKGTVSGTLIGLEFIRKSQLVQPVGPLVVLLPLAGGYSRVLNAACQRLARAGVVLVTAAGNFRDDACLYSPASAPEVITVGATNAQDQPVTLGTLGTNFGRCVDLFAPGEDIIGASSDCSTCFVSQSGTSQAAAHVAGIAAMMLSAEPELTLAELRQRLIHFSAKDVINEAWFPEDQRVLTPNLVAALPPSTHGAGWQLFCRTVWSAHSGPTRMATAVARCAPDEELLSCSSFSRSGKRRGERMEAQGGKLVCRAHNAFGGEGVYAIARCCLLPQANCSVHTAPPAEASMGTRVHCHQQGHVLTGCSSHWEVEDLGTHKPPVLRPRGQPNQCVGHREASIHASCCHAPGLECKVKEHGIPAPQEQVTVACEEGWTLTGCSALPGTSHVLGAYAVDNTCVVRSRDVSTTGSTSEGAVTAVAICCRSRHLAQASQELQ
PCSK9/LDLR interaction, sequence (Q8NBP7 153-692): as above
PCSK9/LDLR interaction, sequence (Q8NBP7 31-152 partner limits assumed): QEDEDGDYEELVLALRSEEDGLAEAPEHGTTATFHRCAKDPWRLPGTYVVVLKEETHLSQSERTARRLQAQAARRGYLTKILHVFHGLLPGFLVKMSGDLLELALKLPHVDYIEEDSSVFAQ

Row | Molecule | Inhibition of PCSK9/LDL receptor interaction (in words) (PCSK9/LDLR interaction) | Inhibition of PCSK9-mediated LDL receptor degradation (in words) (PCSK9 [1]) | Relative level of inhibition of LDLR degradation observed (PCSK9 [1]) | Plasma total cholesterol level (PCSK9 [2]) [mg/dL] | LDLR/GAPDH (PCSK9 [3]; Table 7, lightest exposure of LDLR panel vs. GAPDH panel) | LDLR (band intensity) (PCSK9 [3]; Table 7, lightest exposure of LDLR panel) | Mean LDLR/GAPDH (PCSK9 [3]; Table 7, lightest exposure) [AU] | % Change (PCSK9 [3]; Table 7, lightest exposure) [%] | LDLR/GAPDH (PCSK9 [3]; Table 8, darker exposure of LDLR panel vs. lightest GAPDH panel) | LDLR (band intensity) (PCSK9 [3]; Table 8, darker exposure of LDLR panel) | Mean LDLR/GAPDH (PCSK9 [3]; Table 8, darker exposure) [AU] | % Change (PCSK9 [3]; Table 8, darker exposure) [%] | % inhibition at 450 nM of antibody (PCSK9/LDLR interaction; 450 nM antibody, relative to the assay with no antibody added)
1 | B1 | effectively inhibit interaction between PCSK9 and the LDL receptor | inhibit PCSK9-mediated LDL receptor degradation | + | – | – | – | – | – | – | – | – | – | –
2 | B2 | effectively inhibit interaction between PCSK9 and the LDL receptor | inhibit PCSK9-mediated LDL receptor degradation | +++ | 72.05 | 0.272 AU and 0.278 AU and 0.262 AU and 0.128 AU | 13714 and 13766 and 12508 and 5977 | 0.235 | −48.0 | 0.439 AU and 0.396 AU and 0.426 AU and 0.249 AU | 19883 and 18057 and 18642 and 10669 | 0.377 | −35.2 | 88* %
3 | B3 | effectively inhibit interaction between PCSK9 and the LDL receptor | inhibit PCSK9-mediated LDL receptor degradation | ++ | – | – | – | – | – | – | – | – | – | –
4 | B4 | effectively inhibit interaction between PCSK9 and the LDL receptor | inhibit PCSK9-mediated LDL receptor degradation | ++ | – | – | – | – | – | – | – | – | – | –
5 | B5 | effectively inhibit interaction between PCSK9 and the LDL receptor | inhibit PCSK9-mediated LDL receptor degradation | + | – | – | – | – | – | – | – | – | – | –
6 | B6 | effectively inhibit interaction between PCSK9 and the LDL receptor | inhibit PCSK9-mediated LDL receptor degradation | ++ | – | – | – | – | – | – | – | – | – | –
